{"source": "patent US8173397B2", "about": "“Folded recombinant catalytic fragments of multidomain serine proteases, preparation and uses thereof” (TargetEx Kft., priority 2002, dated 2012)", "key": {"[1]": {"system": "P1 Arg oligopeptide", "test": "Competing oligopeptide substrate library", "format": "biochemical", "conditions": "same conditions", "description": "The specificities of the MASP-1 and MASP-2 CCP1-CCP2-SP fragments were tested on a competing oligopeptide library applying the method described before (Antal, 2001).\nTo further investigate the range of substrate specificity and relative specific activities of MASP-1 and MASP-2 we applied a competing oligopeptide substrate library. (Antal, 2001). This library contains a mixture of seven oligopeptides (each 13 amino acids in length) with different cleavage sites (P1) for both trypsin and chymotrypsin-like enzymes (His-Ala-Ala-Pro-Xxx-Ser-Ala-Asp-Ile-Gln-Ile-Asp-Ile, SEQ ID NO:18, where Xxx could be Lys, Arg, Tyr, Leu, Phe, Trp or Pro). The individual peptide substrates compete for the protease under investigation, in our cases for either the MASP-1 CCP1-CCP2-SP or the MASP-2 CCP1-CCP2-SP fragment. […] The MASP-1 catalytic fragment (CCP1-CCP2-SP) exerted a substantially larger activity on the Arg oligopeptide substrate than the MASP-2 fragment (FIG. 7). […] MASP-2 also preferred the Arg substrate to the Lys one, but the degree of preference was much less than that of MASP-1. A very similar specificity profile was obtained for trypsin in this oligopeptide library system."}, "[2]": {"target": "T1, C2 (Homo sapiens, UniProt P06681)", "T1 construct": "from tissue", "T1 sequence (P06681 21-752)": "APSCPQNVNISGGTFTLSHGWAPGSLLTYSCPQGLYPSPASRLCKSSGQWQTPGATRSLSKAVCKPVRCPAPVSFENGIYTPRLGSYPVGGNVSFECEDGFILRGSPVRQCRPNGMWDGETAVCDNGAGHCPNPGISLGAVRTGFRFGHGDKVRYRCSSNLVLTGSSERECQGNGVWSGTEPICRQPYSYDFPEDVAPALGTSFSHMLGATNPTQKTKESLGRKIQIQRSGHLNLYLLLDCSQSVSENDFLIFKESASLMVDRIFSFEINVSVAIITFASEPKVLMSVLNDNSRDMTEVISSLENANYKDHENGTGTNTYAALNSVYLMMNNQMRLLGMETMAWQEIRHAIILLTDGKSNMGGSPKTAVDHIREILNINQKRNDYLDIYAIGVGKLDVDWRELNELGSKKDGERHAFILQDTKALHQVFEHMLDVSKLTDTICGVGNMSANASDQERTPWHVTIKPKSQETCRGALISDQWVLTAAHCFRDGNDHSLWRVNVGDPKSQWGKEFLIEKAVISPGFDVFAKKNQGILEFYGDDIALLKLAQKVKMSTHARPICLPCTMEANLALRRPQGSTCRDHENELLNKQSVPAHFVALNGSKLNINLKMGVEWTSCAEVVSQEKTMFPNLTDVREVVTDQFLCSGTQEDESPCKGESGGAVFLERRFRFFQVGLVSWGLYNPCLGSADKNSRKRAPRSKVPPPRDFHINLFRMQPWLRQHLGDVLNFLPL", "test": "C2 cleavage by MASP fragments", "format": "biochemical", "conditions": "37° C., pH 7.4; averages of 2 to 4 experiments, standard errors", "description": "(§1) C2, C3, C3(NH3), C4 cleavage—Serial dilutions of MASP-1 and MASP-2 fragments ranging between concentrations of 1 μM and 10 pM were incubated at 37° C. in 20 mM HEPES, 140 mM NaCl, pH 7.4 with C2, C3, C3(NH3) or C4 at typical concentrations of 0.5-1 μM. The cleavage was followed by SDS-PAGE under reducing conditions. Desirable concentrations of the MASP fragments for further detailed kinetic analysis were chosen to be where half of the protein substrates were hydrolyzed during the first 20 minutes of incubation. The protein substrates C2, C3, C3(NH3) or C4 were then incubated with the selected concentrations of the MASP fragments at 37° C. in 20 mM HEPES, 140 mM NaCl, pH 7.4. Typically 11-13 samples were taken at varying time periods but always within 50 minutes from the beginning of the reaction. Cleavages rates were quantified by measuring the diminution of the cleaved chain visualized by Coomassie stained SDS-PAGs using a GEL DOC 1000 instrument and Molecular Analyst Software for densitometric calculations (Bio-Rad, Hercules, Calif., USA). The reactions were assumed to be of the Michaelis-Menten type. In the case of C3 and C3(NH3) cleavage a further reasonable assumption of KM>>[substrate] was made. The constants KM, kcat and […] were estimated by unbiased non-linear regression methods regressing the data on the following equations: t=([S0]−[S]+KMln([S0]/[S]))/(kcat[E0]) or in the case of C3 and C3(NH3) cleavage on [S]=[S0]exp(−t[E0]kcat/KM)."}, "[3]": {"system": "C4", "test": "C4 cleavage by MASP fragments", "format": "biochemical, human", "conditions": "37° C., pH 7.4; averages of 2 to 4 experiments, standard errors", "description": "as §1"}}, "data": [{"molecule": "MASP-1γB: E. coli-expressed, refolded human MASP-1 CCP1-CCP2-SP fragment, Gly298 to Asn699 with N-terminal Ala-Ser-Met-Thr tag (protein) chain 1: ASMTGNECPELQPPVHGKIEPSQAKYFFKDQVLVSCDTGYKVLKDNVEMDTFQIECLKDGTWSNKIPTCKIVDCRAPGELEHGLITFSTRNNLTTYKSEIKYSCQEPYYKMLNNNTGIYTCSAQGVWMNKVLGRSLPTCLPVCGLPKFSRKLMAR chain 2: IFNGRPAQKGTTPWIAMLSHLNGQPFCGGSLLGSSWIVTAAHCLHQSLDPEDPTLRDSDLLSPSDFKIILGKHWRLRSDENEQHLGVKHTTLHPQYDPNTFENDVALVELLESPVLNAFVMPICLPEGPQQEGAMVIVSGWGKQFLQRFPETLMEIEIPIVDHSTCQKAYAPLKKKVTRDMICAGEKEGGKDACAGDSGGPMVTLNRERGQWYLVGTVSWGDDCGKKDRYGVYSYIHHNKDWIQRVTGVRN", "values": [{"measurement": "efficiency of digestion of the P1 Arg peptide relative to the corresponding fragment of MASP-2", "setting": "[1]", "value": "4-5 fold"}, {"measurement": "C2 kcat", "setting": "[2]", "value": "0.10 ± 0.07", "unit": "s⁻¹"}, {"measurement": "C4 kcat", "setting": "[3]", "value": "0.002 ± 0.001", "unit": "s⁻¹"}]}]}
